Laboratory results from the DeepSol protein solubility set.

Assay: soluble on expression in E. coli; label from the status in PepcDB or PDB records

Sequence	soluble on expression in E. coli
MKKRKPMDYKTRIIYALLKSRLKTIDTYASRAEEIQDRQLRRILSSAAYTSTGIRYGFNRISSKECFARNVPVRDYESTQAEIERMLRGEKDVLCPGRCTWFAKSSGTTNSKSKFIPVPYRHLHYCHYQGGKDSLSLYLRNRPDSRFFTTKGLVLGGSHAPVSMNADIQVGDLSAILVENMPVLGNCMRVPSKETLLMDEWTEKLKAVVREVAHVRVGSLSGVPSWILVLIKDVLAATGRETLSDVWPELEVFFHGGISFAPYRAQYEKLIPSSRMQYMETYNASEGFFGIQDDPKDSGMLLMLDYGVYYEFIPMEHFGRPEAEAIPLEGVEKGRNYAMIISTLGGLYRYVLGDTVRFTSVKPYKIVITGRTKHYINAFGEELMVDNSDKALAATCKRFGVQAVDYTVAPHFFSEEGKGRHDWLIEFVSAPADPNAFAKALDAELQTLNSDYEAKRYADMTLLPLSLTIARSGLFHDWLTEQGKLGGQHKVPRLSNTPEIMRSILEMNSAAALEHHHHHH	not soluble
SANDKQYISYNNVHQLCQVSAERIKNFKPDLIIAIGGGGFIPARILRTFLKEPGVPTIRIFAIILSLYEDLNSVGSEVEEVGVKVSRTQWIDYEQCKLDLVGKNVLIVDEVDDTRTTLHYALSELEKDAAEQAKAKGIDTEKSPEMKTNFGIFVLHDKQKPKKADLPAEMLNDKNRYFAAKTVPDKWYAYPWESTDIVFHTRMAIEQGNDIFIPEQEHKQ	soluble
MSLANILAIDDSGLMQAFWVRILSRSQHNVITVSSGDEMRGVLATMNPQLIFLDLSFPGENGFELLQHIRSYQHCLEIPVIAVSGYAGEDTRQACREAGFTDFLAKPFSLAELRGMLARYLDHATEGHHHHHH	not soluble
MISILHVAARVLELRPSCDKMKLYKLCYFSQGWHLAWTGRPLFNEELQAWKYGAVSPTLRQASGLRADDDRLVTQIWSGDSSQLIDYERSVVDTVVSFYGDLESFHLSDLSHGFAWSTVRGNLPPDASCSDVIPHSLIRREFVENAWGEAPTPNAPERLPSMALDALEQAADDVAAENAETLRLLAFI	not soluble
MGSDKIHHHHHHMWDYDRLFEIIEELVMHHSPSGAEAEINQLLMQRFAALGVEVWCDRADNIIAKIPGKNPDRAMSNDKPLLYERLRQRAYAITAHKDEIGAIVKSLGDEGRVEVRKLGGSFPWVYGEGVVDLLGDRETISGILSFGSRHVSHESPQKVQQEDTTVKWENAWIETKRTTDELEAAGVRPGTRMVIGKHRKHPIRLKDHIASYTLDNKASVAILLALAENLKQPVVDVYLVASAKEEVGAIGALFFTQNQPLDALIALEVCPLSEEYPIKDGESPILLSQDAYGIYDEGLNGQVRQSAKQLDIPVQLTILSQFGSDASIAMKFGHVARAACLAFPTQNTHGYEIAHLGAIANCIDLLKAFCETEF	not soluble
MLSRLSSIFRYFGTTSTIATMSPKKVTIIGSGNWGSAIARIVGSTTKSFPDEFDPTVRMWVFEEIVNGEKLSEVINNRHENIKYLPGKVLPNNVVAVTDLVESCEGSNVLVFVVPHQFVKGICEKLVGKIPADTQAISLIKGVSTEKRGGLKLISEEIKEILKIEVSVLMGANLAPEVANDNFCEATIGCKRKAEDGPLLKKLFHTDNFRINVVEDAHTVELCGALKNVVACAAGFTDGLGYGDNTKAAVIRLGLMETTKFVEHYYPGSNLQTFFESCGIADLITTCYGGRNRKVCEAFVKTGKSMAEVEKELLNGQSAQGPLTAEEVYLMMHKTGLDAKFPLFTAVHKICAGEMKPAELVDCLRNHPEHM	not soluble
MGSDKIHHHHHHMELFRLHYFLELCKVKQFTKAAENLAISQAALSKQIKILEATLGAELFNRQGQTTTLTPAGLILEKYCWRITNELVSIEEELKEINHSSNHIYVATYLCDLEYKLNDLLMTTLTDRSSNLQVHTIITENILQSLETMDADFGISFADLPLPEHIGKIDLFTANYQFILRNDHPALAKATTEEILKELTMYPFVRLNTEFSEQNKLTNWLDTTFSNFSPEKVIQVDTLSLITHLVSHSDSFAIVPEYTNIQLLDNSIHTLTYQELPKRNMAVYYLKERYMSRQLQQLLAECQKQFQ	not soluble
MSLRAVVTMGHGDLDQLVLHPDWPRPDPEPGEVLIRVGACGLNNTDVNTRSGWYSKTVTDATTGGAFDEVGEDDPTWGGAPITFPRIQGADVCGTIVAVGAGVDAARIGERVITDGWLRDADAPEDMNKTGYFGSERNGGFAEYTTIPSSNALDVNSTLSDAELATFSCSYSTAEGMLTRARVTADDTVLIPGASGGVGGALVQLAKRRGARVIAIASEGKHSDVAALGPDMILPRAPAHLRSALGDERITVVADVVGGPYWPSLIDILERGGRYTCSGAIAGPMVSLDLRTFYLRDLTFTGSTVIDLEVMPNIVRYIEEGAIKPSLAATYPLEDLRAAQSAFIAKEHTGNIVVTEGHHHHHH	not soluble
MSELYVAECNAAKARLEVETECRRIIADNYEKVLERAKEYSKKLEAPILAKICEVGYFCGAHVVRTNQVTMEMGANYYGECSIHTAEKILDRRVSEMRRQREEGLDSIRMLDDKIKFAQDNFSSVSIDGGPIEIVEKYDEEMEKLFYQNRKNKKMSQNDEQNEKIIEKNKLNGDQDHNDVMNRLEELEKLEQDNDEMEEAPIPKPFEVSNEDLQDLGKLEEVEEVEQDPTDKKLRFGMNERLLAQPGVTQKEMERLLDFLDTCDEESSDEEYDEDEEEGDDDEENLNNSVEELDSDDYASDDNIEKSNNSDQQLKSKKIETQVIKVEEIVEETVTKTTVKRKKSGVRFAQQLENVKTFHQTDTVEIKEEDSVIETKSILRSTEPTPVDRSALEPEQKELAAMSTMTFPGEIVEKNPYECEPSTSRDPAPVITEKKVSKFRASRHRN	not soluble
MGSDKIHHHHHHMRNYQIPNLFNLGDLETKKVLKAANQAHQALGELKGVVQTVPNQNILLGTLPLQEAKESSEIENIITTQDDLYQSNVATQQFTTIAAKEVHHYAQAVSFGFSEVRKTELITLNLIKQIQAKLEGNNAGFRKQIGTGLVNQRTGQVVYMPPQQPEMIEHYMSVLERFINDSEQIDYDPLVKMAIVHHQFESIHPFYDGNGRTGRIINILYLIQQNLLDTPILYLSRYINRNKDQYYYLLQFVRDHNDWEEWLIFMLNGIAETAKQTVDLINQIKKLMQEHKLLIRNQLPNIYSHELINNLYKYPYTKIDFIAEDCQVHRNTAGKRLEQLVDLGILKKVKIGKENFYINMELYYLLTK	not soluble
MLSKIELMLLRSLETGKTYTPEEAAELSGLSKDAVLKAAYMLQERGYVRVIENVRTHYSLTEEGERYLKEGLPEEKLYSLVKSGVNSMDELRKRMGREFQIALGWLRRKGAVEVEGDKVVPKREPSFDERA	soluble
MMDLELPPPGLPSQQDMDLIDILWRQDIDLGVSREVFDFSQRRKEYELEKQKKLEKERQEQLQKEQEKAFFAQLQLDEETGEFLPIQPAQHIQSETSGSANYSQVAHIPKSDALYFDDCMQLLAQTFPFVDDNEVSSATFQSLVPDIPGHIESPVFIATNQAQSPETSVAQVAPVDLDGMQQDIEQVWEELLSIPELQCLNIENDKLVETTMVPSPEAKLTEVDNYHFYSSIPSMEKEVGNCSPHFLNAFEDSFSSILSTEDPNQLTVNSLNSDATVNTDFGDEFYSAFIAEPSISNSMPSPATLSHSLSELLNGPIDVSDLSLCKAFNQNHPESTAEFNDSDSGISLNTSPSVASPEHSVESSSYGDTLLGLSDSEVEELDSAPGSVKQNGPKTPVHSSGDMVQPLSPSQGQSTHVHDAQCENTPEKELPVSPGHRKTPFTKDKHSSRLEAHLTRDELRAKALHIPFPVEKIINLPVVDFNEMMSKEQFNEAQLALIRDIRRRGKNKVAAQNCRKRKLENIVELEQDLDHLKDEKEKLLKEKGENDKSLHLLKKQLSTLYLEVFSMLRDEDGKPYSPSEYSLQQTRDGNVFLVPKSKKPDVKKN	not soluble
MAHHHHHHMNRHNKFYAEVADELEGEDYYDDDDDDYNNDEEYEEEGEYDEAAYETTASAASPEPVHMPKSTTQATAPAAAAVRVNPYTTISPQVDDDYELLDVLLPQLHALWKTNAPTMLPLSEGEAVTALRASNYDVEPAFLQLKEKRDEERSKRGGGVLRVAAAAGPAKRASTPPTVEPPEPGGEAASDNEGNSASPSASSGRTTITLRGWKGASQRRTKQMLEMEPDKEKPDCTFVIAGHVDAGKSTTLGHLLLLLGRVSIQDVERNEKADRTHHKDSFKYAWLLDQCEEERRRGVTIDSGSFCFETEHRRVHILDAPGHKDFVLNMISSATQADAALLVVTATNSEFETGLHHGTKSHLLVLKTLGVGSIVVAVNKMDAVAYSQERYDYVVRELQLLLKQTRIPEEAIIGFCPISGMTGVNITQRGAKETPWYHDLSLIEMIDRCPLESRLVNSPLRLSLQDVQGTTLYAKVESGRLFTGDMVHFVPSEVRVTIKSIQKPTVAGPVLVAFAGETVEISTNSSVTGLYPGCVGCEPNLLIRSSTDFEAHIQTFRTLTKAILPGASFTIIVHALTVRVHVAALISKMDSKTGNWSKGMVKCVPPAAQAMMLFRAESPVALEPATECRALGRFVLQQDGETVAGGLVTRVVDKA	not soluble
MRLFIVQAMFTEYRPTHGYDEYFCREQSAPRADLEPLLSSLGAMGLAELNRSHASASNLLRRLGATFRLNGSGLHGGERILPFDPLPRLIHRQEWSVLERGLVQRLEAIDQFLADVYGPQRILNDGVIPREDVESSQGWRPQMQDIAVPLNRWCHISGLDLIRDGDGTWRVLEDNLRCPSGVAYFLENRRVMKRLFPSLFQGRTVQPIDDYPSHLLRTLQDLAPWSDAPRVVLLTPGVFNSAYFEHSYLAQQMGIALVEGRDLICEDGRVWMRSTAGREPVDVIYRRIDDDFLDPNVFRRDSMLGVPGLIDAMRSGRVAIANAPGSGVADDKLIYAYVPAMIRYYLNEEPIIDNVPTYLCSRDDDRRYVLEHLNELVVKSVAEAGGYGMLIGPHASSEEIESFAVKIKAHPRNFIAQPTLQLSTVPSLSEGELYPCHVDLRPYVLRGKSDWVSPGGLTRVALKRGSLVVNSSQGGGCKDTWVVSDSAVTAGNQELVPC	not soluble
MGSDKIHHHHHHMTQYIYLHGFASSPQSAKAQDIRQRFAQIHTQLTIPDLNAGEFSQLTITRQIQQIAATFPDDSVPITLIGSSLGGLTAAHLGQRYLQVQRLVLLAPAFGFLSHWLPKMGEGAVQSWQQNGYYPVYHYGEGTSLPLSYNFVTDAAQYQEDHIQRPIPTLILHGKHDEVIPITASRDFAHSRPWVELIELDSNHALGNVMEEIWQAISLFCQLPESGKI	not soluble
MSADYPRDLIGYGNNPPHPHWPGDARIALSFVLNYEEGGERCVLHGDKESEAFLSEMVAAQPLQGVRHMSMESLYEYGSRAGVWRLLKLFKRRNVPLTVFAVAMAAQRNPEVIRAMVADGHEICSHGYRWIDYQYMDEAQEREHMLEAIRILTELTGQRPVGWYTGRTGPNTRRLVMEEGGFLYDSDTYDDDLPYWDPASTAEKPHLVIPYTLDTNDMRFTQVQGFNNGEQFFQYLKDAFDVLYEEGATAPKMLSIGLHCRLIGRPARMAALERFIQYAQSHDKVWFARREDIARHWHREHPFQETEA	soluble
MATFFLLSAGKAQDRIPACPPLGKTLKMIKPLREMNWANDTIAVQTSFPSAFRETGRDEIIDSIALLTPVFERLRQVRAGLSEDTVRILHIGDSHVRGHIYPQTTGTLLKETFGAVSYTDMGVNGATCLTFTHPGRIADIAAMKPELLILSFGTNESHNRRYNVNLHYNQMDELVKLLRDSLPDVPILLTTPPGSYESFRQRRRKRTYAINPRTVTAAETIRRYAKDHRLLVWDMYDVVGGKRRACTNWTEAKLMRPDHVHYLPEGYILQGNLLYQAIIQAYNDYVSH	not soluble
